These results are taken from patent US20220025045A1.

The target in experiment [1] is recombinant human ILT2 protein (analyte in SPR and Octet) (human) (UniProt Q8NHL6). The experiment can be described thus: BLI (Octet RED96), mAb captured on AMC biosensor, 1:1 model. (Biolayer interferometry detects binding as a change in optical thickness at a sensor tip.)
The target of experiment [2] is human ILT-2 (LILRB1), complete form expressed at the cell surface (human) (UniProt Q8NHL6). Briefly: flow cytometry, CHO-ILT2 cells.
Experiment [3] addresses ILT2 on primary human NK cells (human) (UniProt Q8NHL6). The experiment can be described thus: flow cytometry, primary NK cells. On the technique in general: A flow cytometer gives signals particle by particle.
Experiment [4] has as its target recombinant human CD16b (human) (UniProt O75015). Briefly: SPR, antibody immobilized, soluble FcR, steady state. Background: Surface plasmon resonance follows binding to a sensor surface in real time, without labels.
Experiment [5] addresses recombinant human CD16a(F) (human) (UniProt P08637). The description is as above.
Experiment [6] deals with recombinant human CD32a (human) (UniProt P12318). Described as above.
Experiment [7] deals with recombinant human CD16a(V) (human) (UniProt P08637). Described as above.
For the next experiment, the target named is human FcRn (human) (UniProt P55899). The experiment can be described thus: SPR, antibody immobilized, soluble FcR.
Experiment [8] has as its target recombinant human CD32b (human) (UniProt P31994). Briefly: SPR, antibody immobilized, soluble FcR, steady state.
The target in experiment [9] is recombinant human CD64 (human) (UniProt P12314). The experiment can be described thus: SPR, antibody immobilized, soluble CD64, 1:1 kinetic model.
Chain of recombinant human CD64 (human) (P12314 16-288 limits assumed): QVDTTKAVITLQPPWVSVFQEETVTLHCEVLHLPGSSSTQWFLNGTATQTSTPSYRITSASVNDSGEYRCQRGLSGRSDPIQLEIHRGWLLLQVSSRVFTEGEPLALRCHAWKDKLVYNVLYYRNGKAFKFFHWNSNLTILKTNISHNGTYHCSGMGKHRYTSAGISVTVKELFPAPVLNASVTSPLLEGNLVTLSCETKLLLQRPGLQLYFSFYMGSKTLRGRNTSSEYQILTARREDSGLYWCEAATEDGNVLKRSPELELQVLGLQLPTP

Chain of human FcRn (human) (P55899 24-297 limits assumed, chain 1 of 2): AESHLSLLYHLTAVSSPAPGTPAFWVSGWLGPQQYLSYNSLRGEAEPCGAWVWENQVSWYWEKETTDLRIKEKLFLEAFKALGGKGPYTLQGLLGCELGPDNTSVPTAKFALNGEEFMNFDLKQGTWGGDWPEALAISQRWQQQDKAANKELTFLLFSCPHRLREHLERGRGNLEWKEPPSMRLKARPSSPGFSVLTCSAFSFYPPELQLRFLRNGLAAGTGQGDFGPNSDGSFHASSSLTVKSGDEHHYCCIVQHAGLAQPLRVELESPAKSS
Chain of human FcRn (human) (chain, as listed by the source limits assumed, chain 2 of 2): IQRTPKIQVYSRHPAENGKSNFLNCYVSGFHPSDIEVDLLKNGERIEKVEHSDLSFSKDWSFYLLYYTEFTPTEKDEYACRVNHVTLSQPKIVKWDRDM
Chain of recombinant human CD16a(V) (human) (P08637 17-208 F176V limits assumed): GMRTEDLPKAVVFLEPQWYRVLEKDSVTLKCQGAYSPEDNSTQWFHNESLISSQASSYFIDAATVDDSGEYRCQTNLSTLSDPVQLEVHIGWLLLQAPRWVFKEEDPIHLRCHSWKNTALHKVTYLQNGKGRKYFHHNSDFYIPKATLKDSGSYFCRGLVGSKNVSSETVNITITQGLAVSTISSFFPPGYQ
Chain of recombinant human CD32b (human) (P31994 46-217): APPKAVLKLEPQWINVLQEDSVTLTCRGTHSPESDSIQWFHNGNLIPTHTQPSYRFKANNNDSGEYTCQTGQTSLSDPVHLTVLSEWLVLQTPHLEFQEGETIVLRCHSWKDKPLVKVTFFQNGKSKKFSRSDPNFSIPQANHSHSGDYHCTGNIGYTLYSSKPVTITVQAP
Chain of recombinant human CD32a (human) (P12318 36-218): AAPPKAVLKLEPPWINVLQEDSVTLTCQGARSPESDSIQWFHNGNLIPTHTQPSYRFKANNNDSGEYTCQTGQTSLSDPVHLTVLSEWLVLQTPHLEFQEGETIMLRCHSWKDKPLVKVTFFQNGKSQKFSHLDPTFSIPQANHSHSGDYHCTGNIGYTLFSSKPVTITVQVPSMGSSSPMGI
Chain of recombinant human ILT2 protein (analyte in SPR and Octet) (human) (Q8NHL6 24-458 limits assumed): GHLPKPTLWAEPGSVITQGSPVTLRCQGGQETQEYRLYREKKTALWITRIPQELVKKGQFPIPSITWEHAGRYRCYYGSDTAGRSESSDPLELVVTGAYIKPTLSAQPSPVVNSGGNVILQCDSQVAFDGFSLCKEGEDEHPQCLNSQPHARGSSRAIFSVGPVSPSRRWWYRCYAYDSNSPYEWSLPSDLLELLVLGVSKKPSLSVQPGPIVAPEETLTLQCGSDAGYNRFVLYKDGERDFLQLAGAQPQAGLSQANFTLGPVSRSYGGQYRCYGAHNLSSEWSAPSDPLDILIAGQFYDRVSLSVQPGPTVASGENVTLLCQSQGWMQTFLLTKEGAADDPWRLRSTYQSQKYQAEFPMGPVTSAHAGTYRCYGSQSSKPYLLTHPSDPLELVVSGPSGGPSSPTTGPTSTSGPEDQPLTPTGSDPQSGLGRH
Chain of recombinant human CD16a(F) (human) (P08637 17-208 limits assumed): as the sequence (P08637 17-208 F176V limits assumed) above, with V160F counted along it
Chain of recombinant human CD16b (human) (O75015 17-200 limits assumed): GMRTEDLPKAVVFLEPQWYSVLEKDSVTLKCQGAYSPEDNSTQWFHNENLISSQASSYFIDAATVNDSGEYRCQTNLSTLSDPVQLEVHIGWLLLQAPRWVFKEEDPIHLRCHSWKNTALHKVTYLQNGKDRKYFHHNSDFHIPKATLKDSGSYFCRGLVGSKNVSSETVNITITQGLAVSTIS
Chain of human ILT-2 (LILRB1), complete form expressed at the cell surface (human) (Q8NHL6 24-650): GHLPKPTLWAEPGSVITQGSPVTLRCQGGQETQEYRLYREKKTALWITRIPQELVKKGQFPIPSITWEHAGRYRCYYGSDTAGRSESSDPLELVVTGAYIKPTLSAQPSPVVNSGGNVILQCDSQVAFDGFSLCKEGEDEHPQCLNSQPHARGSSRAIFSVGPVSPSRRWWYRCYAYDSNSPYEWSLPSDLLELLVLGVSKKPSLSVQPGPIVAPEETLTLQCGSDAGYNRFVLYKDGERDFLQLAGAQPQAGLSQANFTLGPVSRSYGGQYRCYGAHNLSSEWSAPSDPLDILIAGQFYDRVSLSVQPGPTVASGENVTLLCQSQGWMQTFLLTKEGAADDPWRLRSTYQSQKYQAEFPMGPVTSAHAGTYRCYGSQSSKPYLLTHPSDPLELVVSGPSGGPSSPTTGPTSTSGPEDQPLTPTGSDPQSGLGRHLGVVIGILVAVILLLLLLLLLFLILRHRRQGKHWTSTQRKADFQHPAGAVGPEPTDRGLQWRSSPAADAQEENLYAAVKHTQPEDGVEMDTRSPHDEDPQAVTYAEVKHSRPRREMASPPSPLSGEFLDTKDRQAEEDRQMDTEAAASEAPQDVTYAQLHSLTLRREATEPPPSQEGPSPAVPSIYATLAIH
Chain of ILT2 on primary human NK cells (human) (Q8NHL6 24-650): as above

By Kd is commonly meant the free concentration of one partner at which half of the binding sites on the other are occupied at equilibrium, for simple one-to-one binding. The term koff denotes a measure of how fast the partners let go of each other. A word on the kon: it is a measure of how fast the partners come together. The term EC50 denotes the concentration giving half of the maximal effect. In the case of HP-F1 (antibody), in experiment [1], the Kd came to 0.0023 µM, the koff stood at 0.0011 s⁻¹ and the kon stood at 460000 M⁻¹ s⁻¹. The substance also registered an EC50 in experiment [2] of 0.56 µg/mL. The substance also had an EC50 in experiment [3] of 0.09 µg/mL.
For “antibody having wild type human IgG1 domain”, the dissociation constant Kd came out at 15 µM in [4]; 0.962 µM in [5]; 2.08 µM in experiment [6]; 0.734 µM in experiment [7]; 1.27 µM with human FcRn (human).
Substance “human IgG1 antibody having L234A/L235E/G237A/A330S/P331S substitutions” displayed a dissociation constant Kd with human FcRn (human) of 0.714 µM.
Turning to “human IgG1 antibody having L234A/L235E/G237A/A330S/P331S substitutions (antibody; other documents disagree on this pair)”, the equilibrium dissociation constant (Kd) in experiment [8] was found to be 21.8 µM; in experiment [6], 18.2 µM.
For the substance “human IgG1 antibody having L234A/L235E/G237A/P331S substitutions”, the Kd amounted to 16.6 µM in experiment [8], 16.8 µM in experiment [6] and 0.758 µM with human FcRn (human).
For “human IgG1 antibody having L234A/L235E/P331S substitutions”, the Kd stood at 1.55 µM in experiment [9]; 79.8 µM in [8]; 19.9 µM in [6]; 9.92 µM in experiment [7]; 1.51 µM in the experiment with human FcRn (human).
Regarding “human IgG1 antibody having L234F/L235E/P331S substitutions”, the Kd in experiment [9] came out at 0.933 µM; in experiment [8], 17.4 µM; in [5] it was 35.6 µM; in experiment [6], 14.2 µM; in experiment [7] it was 8.63 µM; with human FcRn (human) it was 0.627 µM.
On to “human IgG1 antibody having a N297S substitution”, for which the Kd in experiment [9] turned out to be 0.278 µM; with human FcRn (human), 0.712 µM.
